Biological target: T1, HA-tagged HNF4 (hepatocyte nuclear factor 4) (UniProt P41235 1-474)
T1 sequence (looked up): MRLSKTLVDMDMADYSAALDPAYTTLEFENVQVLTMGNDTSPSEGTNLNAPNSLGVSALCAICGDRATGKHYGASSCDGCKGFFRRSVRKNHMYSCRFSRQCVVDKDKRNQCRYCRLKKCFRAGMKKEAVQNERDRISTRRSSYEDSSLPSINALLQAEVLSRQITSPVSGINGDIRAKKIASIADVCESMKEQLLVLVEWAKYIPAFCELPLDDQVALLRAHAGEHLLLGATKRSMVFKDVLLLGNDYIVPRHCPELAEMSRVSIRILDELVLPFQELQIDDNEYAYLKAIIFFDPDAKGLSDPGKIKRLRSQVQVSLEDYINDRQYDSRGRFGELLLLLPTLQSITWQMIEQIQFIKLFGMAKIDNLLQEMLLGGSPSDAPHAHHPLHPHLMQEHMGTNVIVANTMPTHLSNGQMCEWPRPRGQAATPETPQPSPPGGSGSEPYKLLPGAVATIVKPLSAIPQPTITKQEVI
Assay: cell-based or functional assay

luciferase activity of pGL2/MTP-Luc(-611/+87) in HuH7 cells, HA-HNF4 with increasing HA-DDX3 against HA-HNF4 alone (2.4- to 8.9-fold, DDX3 dose-dependent): 8.9 fold
B1: HA-tagged DDX3 (natural protein, UniProt O00571 1-662, looked up)
chain: MSHVAVENALGLDQQFAGLDLNSSDNQSGGSTASKGRYIPPHLRNREATKGFYDKDSSGWSSSKDKDAYSSFGSRSDSRGKSSFFSDRGSGSRGRFDDRGRSDYDGIGSRGDRSGFGKFERGGNSRWCDKSDEDDWSKPLPPSERLEQELFSGGNTGINFEKYDDIPVEATGNNCPPHIESFSDVEMGEIIMGNIELTRYTRPTPVQKHAIPIIKEKRDLMACAQTGSGKTAAFLLPILSQIYSDGPGEALRAMKENGRYGRRKQYPISLVLAPTRELAVQIYEEARKFSYRSRVRPCVVYGGADIGQQIRDLERGCHLLVATPGRLVDMMERGKIGLDFCKYLVLDEADRMLDMGFEPQIRRIVEQDTMPPKGVRHTMMFSATFPKEIQMLARDFLDEYIFLAVGRVGSTSENITQKVVWVEESDKRSFLLDLLNATGKDSLTLVFVETKKGADSLEDFLYHEGYACTSIHGDRSQRDREEALHQFRSGKSPILVATAVAARGLDISNVKHVINFDLPSDIEEYVHRIGRTGRVGNLGLATSFFNERNINITKDLLDLLVEAKQEVPSWLENMAYEHHYKGSSRGRSKSSRFSGGFGARDYRQSSGASSSSFSSSRASSSRSGGGGHGSSRGFGGGGYGGFYNSDGYGGNYNSQGVDWWGN

Source: paper PMC5269733, “RNA helicase DDX3 maintains lipid homeostasis through upregulation of the microsomal triglyceride transfer protein by interacting with HNF4 and SHP” (Scientific Reports, 2017)
